# Tests used:
# human Orai2 = molecular target: T1, human Orai2 (human, UniProt Q96SN7 1-254); test: FACS, 293EBNA transfectants
# T1 construct: also called hOrai2
# Description: (§1) Purified monoclonal antibodies from hybridoma supernantants of the subclones derived from initial hits were assessed for binding to human Orai1, Orai2 and Orai3 expressed on HEK-293-EBNA cells along with vector transfected control parental cells. Cells stained with or without primary mAbs were counter-stained with a secondary phycoerythrin-labeled goat (“Gt”) anti-human (“Hu”) IgG F(ab′)₂ antibody fragment and visualized using FACS.
# (§2) FACS binding analysis. Transfected 293EBNA cells transiently expressed hOrai1, human Orai2, or human Orai3 (results of binding comparison in FIG. 11A-B), or hOrai1(S218G) (results of binding comparison in FIG. 12A-B); or hOrai1 and hSTIM1; mOrai1 and mouse STIM1; or rat Orai1 and rat STIM1 (results of binding comparison in FIG. 13). The transfected cells were harvested at 48 hours post-transfection. Cells transfected with pcDNA3.1 were used as negative controls. Cells were washed once with ice-cold 1×PBS, resuspended in ice-cold FACS buffer (1×D-PBS+2% goat serum), and 2×10⁵ cells in […] were stained per antibody combination. All antibody incubation steps were performed on ice for 1 hour. […] Next, the unlabelled antibody was detected using goat F(ab′)₂ anti-mouse or anti-human IgG-phycoerythrin (IgG-PE), followed by a wash with 200 μL of ice-cold FACS buffer before flow cytometry analysis. Unstained cells and cells stained with detecting antibodies were used as negative controls. The values of relative level of fluorescence were calculated using FCS Express (De Novo Software) and mean values were calculated using log-transformed data (geometric mean). Purified mAbs were assessed by FACS assay for their ability to specifically bind human Orai1, Orai2 and Orai3 proteins expressed on HEK-293 cells.
# human Orai3 = human Orai3 (human, UniProt Q9BRQ5 1-295); test: FACS, 293EBNA transfectants
# Description: as §1, §2
# [1] = molecular target: T2, hOrai1-mOrai1 ECL2 chimeric protein (human/mouse chimera, UniProt Q96D31 1-301); test: FACS, 293EBNA transfectants
# T2 construct: human Orai1 with mouse ECL2; also called Ch
# T2 sequence (Q96D31 other isoform, or with tags, fused parts or gaps mutant): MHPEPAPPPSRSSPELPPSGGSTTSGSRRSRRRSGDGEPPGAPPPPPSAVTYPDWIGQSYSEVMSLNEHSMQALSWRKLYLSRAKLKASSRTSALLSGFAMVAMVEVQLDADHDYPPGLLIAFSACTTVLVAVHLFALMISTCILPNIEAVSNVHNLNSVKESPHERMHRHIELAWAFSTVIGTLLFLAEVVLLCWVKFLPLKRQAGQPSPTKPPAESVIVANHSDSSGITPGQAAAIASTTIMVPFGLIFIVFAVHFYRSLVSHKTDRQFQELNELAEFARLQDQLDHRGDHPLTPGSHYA
# Text: FIG. 15A-B illustrates the results of FACS analysis showing binding to human Orai1 extracellular loop 2-mouse Orai1 mutant expressed on the surface of HEK-293-EBNA cells. HEK-293-EBNA cells were transiently transfected with mouse Orai1 mutant where human Orai1 extracellular loop 2 replaced the mouse Orai1 extracellular loop 2 and human Orai1 mutant where mouse Orai1 extracellular loop 2 replaced human extracellular loop 2. Transfected cells were stained first with recombinant monoclonal antibodies then counter-stained with a secondary phycoerythrin-labeled goat (“Gt”) anti-human (“Hu”) IgG F(ab′)₂ antibody fragment and visualized using FACS.
# FACS binding analysis. Transfected 293EBNA cells transiently expressed hOrai1-mOrai1 ECL2 or mOrai1-hOrai1 ECL2 chimera. The transfected cells were harvested at 48 hours post-transfection. Cells transfected with pcDNA3.1 were used as negative controls. Cells were washed once with ice-cold 1×PBS, resuspended in ice-cold FACS buffer (1×D-PBS+2% goat serum), and 2×10⁵ cells in 100 μL were stained per antibody combination. All antibody incubation steps were performed on ice for 1 hour. […] Next, the unlabelled antibody was detected using goat F(ab′)₂ anti-mouse or anti-human IgG-phycoerythrin (IgG-PE), followed by a wash with 200 μL of ice-cold FACS buffer before flow cytometry analysis. Unstained cells and cells stained with detecting antibodies were used as negative controls. The values of relative level of fluorescence were calculated using FCS Express (De Novo Software) and mean values were calculated using log-transformed data (geometric mean). The results of the FACS analysis are shown in FIG. 15A-B, which supports the conclusion that the hOrai1 ECL2 domain is the region of hOrai1 where antibodies of the present invention bind.
# human Orai1 [2] = molecular target: T3, human Orai1 (human, UniProt Q96D31 1-301); test: FACS Kd, AM1-CHO/hOrai1/hSTIM1-YFP cells
# T3 construct: on AM1-CHO/hOrai1/hSTIM1-YFP, AM1/hOrai1, HEK-293 transfectants, endogenous on Jurkat and blood cells; in Westerns from cell lysates; also called hOrai1; CRACM1
# T3 sequence (Q96D31 whole entry): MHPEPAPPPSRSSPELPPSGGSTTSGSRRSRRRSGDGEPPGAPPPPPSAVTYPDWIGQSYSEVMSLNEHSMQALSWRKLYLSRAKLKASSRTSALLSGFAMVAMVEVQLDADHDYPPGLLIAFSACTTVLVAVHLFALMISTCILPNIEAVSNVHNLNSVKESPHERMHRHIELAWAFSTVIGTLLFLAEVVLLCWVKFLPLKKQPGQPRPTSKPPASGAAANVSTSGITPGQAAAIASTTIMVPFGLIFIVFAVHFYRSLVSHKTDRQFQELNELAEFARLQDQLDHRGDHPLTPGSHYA
# Description: The equilibrium plates were centrifuged at 500 g for 3 minutes and cell pellets were washed twice with 200 μL of ice cold FACS buffer (1×D-PBS+2% FBS). The cells were then incubated with a secondary antibody, goat anti-human Fc Cy5 at 5 μg/mL and 100 μL per well for 1 h on ice in the dark. Following the incubation, the cells were washed twice with 200 μL of ice-cold FACS buffer before flow cytometry analysis. The GeoMean values gated on live cell population measure the bound [Ab]. The inverse of the GeoMean values that reflects theoretical free [Ag] in the equilibrium solution was then calculated. The inverse values of the GeoMean read were used in KinExA® Pro software for analysis and Kd calculation for each antibody. The free [Ag] measure was plotted against the starting concentration of titrating component and from these plots at two different cell concentrations the Kd was obtained from curve fitting using n-curve analysis in KinExA Pro software. […] Shown in Table 14 (below) are the equilibrium dissociation constant (Kd) values of invented mAbs determined by FACS Kd measurement.
# [3] = molecular target: T4, mOrai1-hOrai1 ECL2 (VIV) protein (human/mouse chimera, UniProt Q8BWG9 1-304 (mouse entry)); test: FACS, 293EBNA, RFI-POC grade; set-up: concentration or dose not given beside the values
# T4 construct: also called Ch
# T4 sequence (Q8BWG9 other isoform, or with tags, fused parts or gaps): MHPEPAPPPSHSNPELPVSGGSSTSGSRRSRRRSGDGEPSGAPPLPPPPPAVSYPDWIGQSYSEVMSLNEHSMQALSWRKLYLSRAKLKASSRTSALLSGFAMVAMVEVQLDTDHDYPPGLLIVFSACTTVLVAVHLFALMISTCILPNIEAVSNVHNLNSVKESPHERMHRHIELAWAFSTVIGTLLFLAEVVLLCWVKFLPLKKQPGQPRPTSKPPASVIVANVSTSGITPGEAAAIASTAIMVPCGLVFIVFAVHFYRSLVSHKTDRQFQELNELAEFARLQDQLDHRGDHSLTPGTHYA
# Text: FIG. 16A-D illustrates the results of FACS analysis showing binding to the indicated mOrai1-hOrai1 ECL2 chimeric mutants expressed on the surface of HEK-293-EBNA cells. Transfected cells were stained first with recombinant monoclonal antibodies then counter-stained with a secondary phycoerythrin-labeled goat (“Gt”) anti-human (“Hu”) IgG F(ab′)₂ antibody fragment and visualized using FACS. In FIG. 16B and FIG. 16D, The values of Relative Fluorescence Intensity as Percent of Control (RFI-POC) are calculated from the relative fluorescence intensity geometric mean (Geo Mean). The geometric mean is an average calculated by multiplying a series of numbers and taking the nth root where n is the number of numbers in the series. It is a statistical average of a set of transformed numbers often used to represent a central tendency in a highly variable data set that minimizes the effects of extreme values.
# Table 11A and Table 11B feature a schematic representation of the POC data from FIG. 16B and FIG. 16D, respectively, where the binding results are recorded as (+++) denoting binding POC from 40% to 100%, (++) for POC of 5% to less than 40%, (+) for POC from 1% to less than 5% and (−) as lack of binding with POC less than 1%.
# human Orai1 [4] = molecular target: T3, human Orai1; test: cell-based or functional assay
# T1 sequence (Q96SN7 whole entry): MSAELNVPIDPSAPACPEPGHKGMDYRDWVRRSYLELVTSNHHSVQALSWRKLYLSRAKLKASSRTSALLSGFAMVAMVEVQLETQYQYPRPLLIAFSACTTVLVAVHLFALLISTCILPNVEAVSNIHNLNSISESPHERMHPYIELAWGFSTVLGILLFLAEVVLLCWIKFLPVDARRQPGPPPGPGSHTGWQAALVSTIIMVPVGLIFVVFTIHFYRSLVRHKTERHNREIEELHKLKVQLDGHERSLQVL
Binder,binding result (human Orai2),binding result (human Orai3),binding result [1],Kd (human Orai1 [2]) [nM],"POC (percent of control, FACS Geo Mean relative to binding to Ch. 1) [3] [%]","IC50 IFN-γ, whole blood Donor A (human Orai1 [4]) [nM]","IC50 IFN-γ, whole blood Donor B (human Orai1 [4]) [nM]","IC50 IL-2, whole blood Donor A (human Orai1 [4]) [nM]","IC50 IL-2, whole blood Donor B (human Orai1 [4]) [nM]"
"mAb 2B4.1 (antibody, human IgG2, lambda, V domains shown) VH: QVQLVQSGAEVKKPGASVKVSCKASGYTFTDYYMHWVRQAPGQGLEWMGWINPNSGGTNYVQKFQDRVTMTRDTSITTAYMELTRLRSDDTAVYYCAREEGDYGMDVWGQGTTVTVSS VL: QSVLTQPPSVSGAPGQRVTISCTGSNSNIGTGYDVHWYQKLPGTAPRLLIYSHFNRPSGVPDRFSGSTSGTSASLAITGLQAEDEADYYCQSYDSSLSGSVFGGGTKLTVLG",no binding (tested: 1 µg),no binding (tested: 1 µg),no binding (tested: 1 µg),1.8,,,,,
"mAb 5B5.2 (antibody, human IgG2, lambda, V domains shown, fully human IgG2 lambda, Campaign 2; same chains as 5B5.1) VH: QVQLVQSGAEVKKPGASVKVSCKASGYTFTDYYINWVRQAPGQGLEWMGWINPNSGGTDYAQKFQGRVTMTRDTSIRTAYMELNRLTSDDTAVYYCAREYGGYEDWFDPWGQGTLVTVSS VL: QSVLTQPPSVSGAPGQRVTISCTGSNSNIGAGFDVHWYQQLPGTVPKLLIYGNNNRPSGVPDRFSGSKSGTSASLAITGLQAEDEADYYCQSYDSRLTVFGGGTKLTVLG",no binding (tested: 1 µg),no binding (tested: 1 µg),no binding (tested: 1 µg),,40 to 100,,6.58,1.39,3.1
"mAb 2D2.1 (antibody, human IgG2, lambda, V domains shown, fully human IgG2 lambda, Campaign 1; also called mAb 2D.1) VH: QVQLQQWGAGLLKPSETLSLTCAVYGGSFSGYYWSWIRQPPGKGLEWIGEIDHSGRINYNPALKSRLTISVDTSKNQFSLKLSSVTAADTAVYYCARAGSGGYEDWFDPWGQGTLVTVSS VL: QSVLTQPPSVSGAPGQRVTISCTGSSSNIGAGYNVHWYQQFPRTDPKLLIYVYNIRPSGVPDRFSGSRSGTSASLAITGLQTEDEADYYCQSYDSSLSGVVFGGGTKLTVLG",no binding (tested: 1 µg),no binding (tested: 1 µg),no binding (tested: 1 µg),0.0098,40 to 100,,,,

# Other lines, results leading:
binding result (human Orai2),binding result (human Orai3),binding result [1],Kd (human Orai1 [2]) [nM],"POC (percent of control, FACS Geo Mean relative to binding to Ch. 1) [3] [%]","IC50 IFN-γ, whole blood Donor A (human Orai1 [4]) [nM]","IC50 IFN-γ, whole blood Donor B (human Orai1 [4]) [nM]","IC50 IL-2, whole blood Donor A (human Orai1 [4]) [nM]","IC50 IL-2, whole blood Donor B (human Orai1 [4]) [nM]",Binder
no binding (tested: 1 µg),no binding (tested: 1 µg),no binding (tested: 1 µg),,40 to 100,8.15,1.66,11.2,5.59,"mAb 5A1.1 (antibody, human IgG2, fully human, Campaign 2; lambda CL-1) heavy: QVQLVQSGAEVKKPGASVKVPCKASGYTFTDYYINWVRQAPGQGLEWMGWINPNNGGTNYAQKFQGRVTMTRDTSISTAYMELRRLRSDDTAVYYCARERGGYEDWFDPWGQGTLVTVSSASTKGPSVFPLAPCSRSTSESTAALGCLVKDYFPEPVTVSWNSGALTSGVHTFPAVLQSSGLYSLSSVVTVPSSNFGTQTYTCNVDHKPSNTKVDKTVERKCCVECPPCPAPPVAGPSVFLFPPKPKDTLMISRTPEVTCVVVDVSHEDPEVQFNWYVDGVEVHNAKTKPREEQFNSTFRVVSVLTVVHQDWLNGKEYKCKVSNKGLPAPIEKTISKTKGQPREPQVYTLPPSREEMTKNQVSLTCLVKGFYPSDIAVEWESNGQPENNYKTTPPMLDSDGSFFLYSKLTVDKSRWQQGNVFSCSVMHEALHNHYTQKSLSLSPGK VL: QSVLTQPPSVSGAPGQRVTISCTGSSSNIGAGFDVHWYQQLPVTAPKLLIYGNRNRPSGVPARFSGSKSGTSASLAITGLQAEDEAVYYCQSYDSSLTVFGGGTKLTVL"
no binding (tested: 1 µg),no binding (tested: 1 µg),no binding (tested: 1 µg),,40 to 100,5.42,2.41,2.18,1.24,"mAb 5C1.1 (antibody, human IgG2, lambda, V domains shown, fully human IgG2 lambda, Campaign 2) VH: QVQLVQSGAEVKKPGASVKVSCKASGYTFTDYYMNWVRQAPGQGLEWMGWINPNSGGTKYAQKFQGRVTMTRDTSIRTAYMELSRLRSDDTAVYYCAREYGGNSDWFDPWGQGTLVTVSS VL: QSVLTQPPSVSGAPGQRVTISCTGSSSNIGAGYDVHWYQQLPGTAPKLLIYGNSNRPSGVPDRFSGSKSGTSASLAITGLQAEDEADYYCQSYDNRLSDSVVIGGGTKLAVQG"
no binding (tested: 1 µg),no binding (tested: 1 µg),no binding (tested: 1 µg),0.133,,,,,,"mAb 2B7.1 (antibody, human IgG2, V domains shown, fully human, Campaign 1) VH: QVQLQQWGAGLLKPSETLSLTCAVYGGSFSGYYWSWIRQPPGKGLEWIGEIDHSGSTNYNPALKSRLTISVDTSKNQFSLKLSSVTAADTAVYYCARAGSGGYEDWFDPWGQGTLVTVSS VL: QSVLTQPPSVSGAPGQRVTISCTGSSSNIGTGYNVHWYQQFPRTDPKLLIYVYNIRPSGVPDRFSGSRSGTSASLAITGLQTEDEADYYCQSYDSSLSGVVFGGGTKLTVLG"
no binding (tested: 1 µg),no binding (tested: 1 µg),no binding (tested: 1 µg),0.52,,,,,,"mAb 2C1.1 (antibody, human IgG2, lambda, V domains shown, fully human IgG2 lambda, Campaign 1; tested hybridoma-purified and recombinant; also called anti-hOrai1 mAb 2C1.1) VH: QVQLQQWGAGLLKPSETLSLTCAVYGGSFSGYYWSWIRQPPGKGLEWIGEIDHSGSTNYNPALKSRLTISVDTSKNQFSLKLSSVTAADTAVYYCARAGSGGYEDWFDPWGQGTLVTVSS VL: QSVLTQPPSVSGAPGQRVTISCTGSSSNIGAGYNVHWYQQFPRTDPKLLIYVYNIRPSGVPDRFSGSRSGTSASLAITGLQTEDEADYYCQSYDSSLSGVVFGGGTKLTVLG"
